Reference: article PMC9937993, “Structures of the NDP-pyranose mutase belonging to glycosyltransferase family 75 reveal residues important for Mn^2+ coordination and substrate binding” (The Journal of Biological Chemistry, 2023)

Target: the molecule itself
Test: SEC; size exclusion chromatography of AtRGP2 WT and its F280D/L283D/Y287D mutant (Fig. S12A); column and buffer not given

B1: AtRGP2 wildtype, recombinant (enzyme)
chain: not shown
notes: AtRGP2, UniProtKB Q9LFW1; codon-optimized gene cloned into pET32a; Only the vector pET32a and the nickel-sepharose purification are stated; also called AtRGP2 WT; source: E. coli BL21-Gold (DE3), purified (nickel-sepharose, Superdex 200)
binding result: binds
